{"source": "patent US20040002586A1", "target": "recombinant human interleukin-22 (IL-22), expressed in E. coli from pEThTIF, refolded, not glycosylated (human) (UniProt Q9GZX6)", "test": "X-ray crystal structure, surface buried between monomer A and monomer B", "data": [{"substance": "recombinant human interleukin-22 (IL-22), expressed in E. coli from pEThTIF, refolded, not glycosylated (from UniProt Q9GZX6 29-179) (ligand)", "values": [{"measurement": "interface area", "result": 2250, "unit": "Å^2"}]}]}
